Reference: the supplement of paper PMC7125110
± gives the standard error. Variants at the floor of the assay were thinned out.

B1: glmS ribozyme (parent)
chain: AUAAAAGCGCCAGAACUACAGAAAUGUAGUUGACGAGGAGGAGGUUUAUCGAAUUUUCGGCGGAUGCCUCCAAA

Variants of: B1
Test: self-cleavage kobs at 640 uM GlcN6P; higher = faster cleavage; RNA array
Details: with glucosamine-6-phosphate
Summary of the method: (§1)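 Tracking of barcoded ribozyme variants used a hybridised Cy3 probe at 37 °C, after in situ transcription by E. coli RNA polymerase on sequenced MiSeq chips. The flowed solution held 40 μM to 10 mM glucosamine-6-phosphate in HEPES/KCl/Mg(OAc)2 buffer, and imaging ran over ~14 h. kobs was taken from exponential decay fits of normalised per-tile medians, and kcat and KM from weighted Michaelis–Menten fits.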

| Variant | self-cleavage kobs at 640 uM GlcN6P [s⁻¹] |
| --- | --- |
| AUAAAAGCGUCAGUAGUACAGAAAUGUAGUUGACGAGGAGGAGGGUUAUCGAAUUUUCGGCGGAUGCCUCCAAA [C10U A14U C16G U45G] | < 1e-05 |
| AUAAAAGCGCUAGAACUACAGAAAUGUAGGCGACGAGGAGGAGGUUUAUCGAAUUUUCGGCGGAUGCCUCCAAA [C11U U30G U31C] | 9.28e-05 ± 2.1e-05 |
| AUAAAAGGGCCAGAGCUACAGAAAUGUAGUUGACGAGGAUGAGGUUUAUCGAAUUUUCGGCGGAUGCCUCCAAA [C8G A15G G40U] | < 1e-05 |
| AUAAAAGCGCCCGAACUACAGAAAUGUAGUUGACGAGGAGGAGGUUUAUCGAAGUUUCGGCGGAUGCGUCCAAA [A12C U54G C68G] | 4.37e-05 ± 1.2e-05 |
| AUAAAAGCGCCAGAACUACAGAAAUGUAAUUGACUAGGAGGAGGUUUAUCGAAUUUUCGGCGGAUGCCUCCAAA [G29A G35U] | < 1e-05 |
| AUAAAAGCGCCAGAACUACAGAAAUGUAGUUGACGAGGAGGAGGGUUAUUGAAUUUUCGGCGGAUGCCUUCAAA [U45G C50U C70U] | < 1e-05 |
| AUAAAAGCACCAGAACUACAGAAAUGUAGUUGACGAAGAGGAGGUUUAUCGAAUUGUCGGCGGAUGCCUCCAAA [G9A G37A U56G] | < 1e-05 |
| AUAAAAGCGCCAGAACUACAGAAAUGUAGUUGACGAGGAGGAGUGUUAUCGACUUUUCGGCGGAUGCCUCCAAA [G44U U45G A53C] | 0.000372 ± 0.00011 |
| AUAAAAGCGGCAGAACUACAGAAAUGUAGUUGACGAGGAGGAGCUUUAUCGAAUUUUCGGCGGAUGCCUCCAAA [C10G G44C] | < 1e-05 |
| AUAAAAGCGCCAGAACUACAGAAAUGUAGUUGCCGAGGAGGAGGUUCAUCGAAUUUUCGGCGGAGGCCUCCAAA [A33C U47C U65G] | < 1e-05 |
| AUAAAAGCGCCAGGACUACAGAAAUGUAGUUAACGAGGAGGAGGUUUAUCGAAUUUUCGAAGGAUGACUUCAAA [A14G G32A G60A C61A C67A C70U] | 0.000302 ± 0.00012 |
| AUAAAAGCGCCAGAAUUACAGAAAUGUAGUUGACGAGGUGGAGGUUUAUCGAAUUUUCGGCGGAUUCCUCCAAA [C16U A39U G66U] | 0.000779 ± 0.00014 |
| AUAAAAGCGCAAGGACUACAGAAAUGUAGUUGACGAGGAGGAAGGUUAUCGAAUUUUCGGCGGAUGCCUCCAAA [C11A A14G G43A U45G] | 4.76e-05 ± 2e-05 |
| AUAAAAGCGCCAGAACUACAGAAAUGUAGUUGACGAGGAGAAGGUUUAUCGAAUUUUCGGCGGACGCCUCCAAA [G41A U65C] | < 1e-05 |
| AUAAAAGCGCCAGAACUACAGAAAUGUAGUUGACCAUGAGGAGGUUUAUCGAAUUUUCGGCGGAUGCCUCCAAA [G35C G37U] | < 1e-05 |
| AUAAAAGCGCCUGAACUACAGAAAUGUAGUUCACCAGGAGGUGGUUUAUCGAAUUUUCGGCGGAUGCCUCCAAA [A12U G32C G35C A42U] | < 1e-05 |
| AUAAAAGCGCCAGAACUACAGAAAUGUAGUAGUCGAGGAGGAGGUUUGUCGAAUUUUCGGCGGAUGCCUCCAAA [U31A A33U A48G] | < 1e-05 |
| AUAAAAGCGCCAGAACUACAGAAAUGUAGUUGACGAUGAGGAGGUUUAUCGAAUUUUUGGCGGAUGCCACCAAA [G37U C58U U69A] | 5.7e-05 ± 1.7e-05 |
| AUAAAAGCGCCAGAACUACAGAAAUGUAGUUGACGAGGUGGAGGUUUAUCGACUCUUCGGCGGAUGCCUCCAAA [A39U A53C U55C] | 0.000547 ± 9.5e-05 |
| AUAAAAGCGCCAGAACUACAGAAAUGUAGCUUACGAGGAGGAGAUUUCUCGAAUUUACGGCGGAUGCCUCCAAA [U30C G32U G44A A48C U57A] | < 1e-05 |
| AUAAAAGCGCCCGAACUACAGAAAUGUAGUUAACGAGGAGGAGGUUUAUCGAAUUUUCGGCGGGUGCCUCAAAA [A12C G32A A64G C71A] | < 1e-05 |
| AUAAAAGCGCCAGAACUACAGAAAUGUAGUUGACGAGGAGGAGAUUUAUUGAAUUUUCGGCGGAUGUCUCCAAA [G44A C50U C67U] | < 1e-05 |
| AUAAAAGCGCGAGAAUUACAGAAAUGUAGUUGACGAAGAGGAGGCUUAUCGAAUUUUCGGCGGGUGCCUCCAAA [C11G C16U G37A U45C A64G] | < 1e-05 |
| AUAAAAGGGCCAGAACUACAGAAAUGUAGUUGACGAGGAGGAGGUUUAUCGAAUUUGCGGCGGAUGCCUUCAAA [C8G U57G C70U] | < 1e-05 |
| AUAAAAGCGCCAGAACUACAGAAAUGUAGUUGACGAGGAGGCGGUUUAUCGAAUUUUCGGCGGUUGCCGCCAAA [A42C A64U U69G] | 4.76e-05 ± 1.2e-05 |
| AUAAAAGCGCCAGGAUUACAGAAAUGUAGUUGACGAGGAGAAGGUUUAUCGAAUUUUCGGCGGAUGCCUCCAAA [A14G C16U G41A] | 0.00178 ± 0.00032 |

Variants of: B1
Test: self-cleavage kobs at 2500 uM GlcN6P; higher = faster cleavage; RNA array
Details: with glucosamine-6-phosphate
Summary of the method: as §1

| Variant | self-cleavage kobs at 2500 uM GlcN6P [s⁻¹] |
| --- | --- |
| AUAAAAGCGCCCGAACUACAGAAAUGUAGUUGACGAGGAGGAGGUUUAUCGAAGUUUCGGCGGAUGCGUCCAAA [A12C U54G C68G] | 5.51e-05 ± 1.5e-05 |
| AUAAAAGCGCCAGAACUACAGAAAUGUAAUUGACUAGGAGGAGGUUUAUCGAAUUUUCGGCGGAUGCCUCCAAA [G29A G35U] | < 1e-05 |
| AUAAAAGCGGCAGAACUACAGAAAUGUAGUUGACGAGGAGGAGCUUUAUCGAAUUUUCGGCGGAUGCCUCCAAA [C10G G44C] | < 1e-05 |
| AUAAAAGCGCCAGAACUACAGAAAUGUAGUUGCCGAGGAGGAGGUUCAUCGAAUUUUCGGCGGAGGCCUCCAAA [A33C U47C U65G] | < 1e-05 |
| AUAAAAGCGCCAGAAUUACAGAAAUGUAGUUGACGAGGUGGAGGUUUAUCGAAUUUUCGGCGGAUUCCUCCAAA [C16U A39U G66U] | 0.00146 ± 0.00036 |
| AUAAAAGCGCCAGAACUACAGAAAUGUAGUAGUCGAGGAGGAGGUUUGUCGAAUUUUCGGCGGAUGCCUCCAAA [U31A A33U A48G] | < 1e-05 |
| AUAAAAGCGCCAGAACUACAGAAAUGUAGUUGACGAGGUGGAGGUUUAUCGACUCUUCGGCGGAUGCCUCCAAA [A39U A53C U55C] | 0.00232 ± 0.00029 |
| AUAAAAGCGCCAGAACUACAGAAAUGUAGCUUACGAGGAGGAGAUUUCUCGAAUUUACGGCGGAUGCCUCCAAA [U30C G32U G44A A48C U57A] | < 1e-05 |
| AUAAAAGGGCCAGAACUACAGAAAUGUAGUUGACGAGGAGGAGGUUUAUCGAAUUUGCGGCGGAUGCCUUCAAA [C8G U57G C70U] | < 1e-05 |
| AUAAAAGCGCCAGAACUACAGAAAUGUAGUUGACGAGGAGGCGGUUUAUCGAAUUUUCGGCGGUUGCCGCCAAA [A42C A64U U69G] | 9.13e-05 ± 1.9e-05 |
| AUAAAAGCGCCAGGAUUACAGAAAUGUAGUUGACGAGGAGAAGGUUUAUCGAAUUUUCGGCGGAUGCCUCCAAA [A14G C16U G41A] | 0.0028 ± 0.00078 |

Variants of: B1
Test: self-cleavage kobs at 10000 uM GlcN6P; higher = faster cleavage; RNA array
Details: with glucosamine-6-phosphate
Summary of the method: as §1

| Variant | self-cleavage kobs at 10000 uM GlcN6P [s⁻¹] |
| --- | --- |
| AUAAAAGCGCCAGAACUACAGAAAUGUAAUUGACUAGGAGGAGGUUUAUCGAAUUUUCGGCGGAUGCCUCCAAA [G29A G35U] | < 1e-05 |
